Measurements reported in the supplement of paper PMC9170038.

System: K4 kissing-loop RNA reporter
Test: apparent KD of K4 kissing-loop reporter; higher = weaker reporter binding
Conditions: Eterna round: R107; input ligand: FMN 200 uM
Procedure: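 RNA-MaP round R107: designed RNA switches with theophylline, tryptophan, arginine or FMN aptamers are transcribed on-chip within common flanks. They are titrated with a labelled K4 kissing-loop RNA reporter in RNA-MaP buffer (100 mM Tris pH 7.5, 80 mM KCl, 4 mM MgCl2), without ligand or with the indicated ligand. Median apparent KD per design.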
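Further: bound reporter read as fluorescence of individual clusters on recovered sequencing chips by microscopy, with normalized cluster intensities fitted with a binding model.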

Going from “ACCAUCAAAGAUGGCCAGGACUCAACUGAUACCAGAGUGGAAACACUCCCUUGGCAGCAGGUGAGUGAUGUUCACGAGUCCUGGA [Omel KL Theo A SS B v8]” to “AAGUGAUGUUGUAGUGAUGUUGUGAUGUUGCAGGAUAUAUAGUGAUGUAGAAGGGUAUGUGCAGUUUUCUUAUUUGAGUGUUGAU [zwzamullin]”, the “apparent KD of K4 kissing-loop reporter” value falls from 942 nM to 75.9 nM (12-fold).

“GUGCGGUGGAGGUUACCGCUAUUCUGAGAAGGAGCGCAGAUGACUGCAGGUAGGUCGCUUAGAGCUUGCAGUGAUGUUGCAAGUU [Berienza]” and “AAGCAGUCACUCGACGCCAUCGAAGAUGGGCGAGGACCGGUACGGCCGCCACUCGGAGUGAUGUUCUGAAGACUGCAAAAUAAAA [MatMod 7 - Jieux - Exclusion - Tryptophan A]” are within 1.5-fold of each other in “apparent KD of K4 kissing-loop reporter” value: 220 nM for the first, 235 nM for the second.

“CGCGCGGGUUUGAGAGGGUUUGCGCGAAGUGAGGAUAUUUAGGGAGAAAGAAGGCACUAUAAAAUAUAGUGAUGUUAUAUAAGGG [SSFMNA.I]” and “AAAAUAGAUCAGUGAUGUUGGUGUCUGGAUACCAGCGAUAAUAGUCGCCCUUGGCAGCCAUGGACGUACAAAAUAAGUACGUCCU [MatMod 20 - Jieux - Same State - Theophylline A]” are within 1.5-fold of each other in “apparent KD of K4 kissing-loop reporter” value: 627 nM for the first, 487 nM for the second.

Compared with “CGAGUGAUGUUCGUUCGUUUAUUUCGGUGACAGGAUAUGCGGAAACGCAGAAGGGUCACCUUUGGGUUACCGGAAUUAACGUUAU [Ex FMN A 30]”, “UGACUGGACUGAAGGAGCGCUUAACUCCUAGUGAUGUUAGGAUAACGAGACAAAGUCUCGAAGCAGGUAGGUCGCAGUCUAGUCU” is 4.1-fold lower in “apparent KD of K4 kissing-loop reporter” value: 640 nM for the first, 157 nM for the second.

“AAUAAUAGUUGAGCAGGCGUGGUCUGAGAUACCAGUGAUUUCGAUCACCCUUGGCAGCUCAGCAUGAGUGAUGUUCAUGCUAUUC [Theo A Ex t10]” and “AAUAAAAUCACGGCCGCCACUGAUUUCCAUAUUAGGAGUGAUGUUCCUAUGACUAUAUAAUUUAACAGGACCGGGUGAAUAUUUA [JR_ExcTryptoB_Sub012]” are within 1.5-fold of each other in “apparent KD of K4 kissing-loop reporter” value: 147 nM for the first, 110 nM for the second.

Compared with “GGCAUCCAUGGACCUAGUGAUGUUAGGUACCGAGGACCGGUACGGCCGCCACUCGGCCAUGGAUGCCGCAAUCGGAAACGAUUGC”, “GGUAGCAUGGCGGCCGCCACUUCAAGUGGAGUGAUGUUCCACGGCAUCGCGAAAGCGAUGCCUGGAAGGACCGGGCCAUGCUACC” is 1.8-fold higher in “apparent KD of K4 kissing-loop reporter” value: 406 nM for the first, 738 nM for the second.

Compared with “AUCCGGAGUGCGGCCGCCACUAUCGGAUAGAGUGAUGUUCUAUCCGGCCUUAAAGGCGCGAACGAUAGGACCGGGCACUCUAAAU [Quatinti]”, “GCCGUACGCAUGGAUACCAGUCAAGAUCAGUGAUGUUGAUCUUUUAUAGAGCCUACAUUUGACCCUUGGCAGCCAUGCGUACGGC” is 3.1-fold higher in “apparent KD of K4 kissing-loop reporter” value: 121 nM for the first, 378 nM for the second.

“AACUGUCAAGGACAACAUUACUGAGGUGAUACCAGCAUCGAAAGAUGCCCUUGGCAGCGCCAACUUGCAGUGAUGUUGCAAGUAA [BrourdMod 1 - Jieux - Exclusion - Theophylline A]” and “UCGCAAAAGUCGGCCGCCACUCCGGGCCCUAUAAAUGGGCGCAGUGAUGUUGCGGCUAGGCCUCUGAGGACCGGGACUUUGUAGC [Tixelequ]” are within 1.5-fold of each other in “apparent KD of K4 kissing-loop reporter” value: 169 nM for the first, 221 nM for the second.

Compared with “UGAUAGGACAGAAGGAGCGGAAGUGAUGUUUCCAAUGGAUAAAAGGUGUCAAAGACACCCUUCCAGGUAGGUCGCUGUCCUAUCU [ArgBX 17 #Palindromic #SwitchBubble #StaticStem]”, “AAAUUUAAUAUAUUUAAUUAAUUAAGUGAUACCAGACAUUAAUAAGUCCCUUGGCAGCGCAAUGCAGUGAUGUUGCUUAUAAUAA [#18 K4 Theophylline A Same State]” is 2.6-fold lower in “apparent KD of K4 kissing-loop reporter” value: 146 nM for the first, 56.1 nM for the second.

Compared with “AAUAACUUGCAGUGAUGUUGCAAGAAAGCUCAGGAUAUCAGGAAACUGAGAAGGGAGCAUCCUGAGCAAACAUCACAACUUAGGA [[K1]-[K2]-[F1]-[F2]-[F]'-[K]'-[F]''_Design2]”, “CUUAAGACAUGAGUGAUGUUCAUGUCCGAAGGAGCGUGCGAAAGCACAGGUAGGUCGCGGACGUGAGUGAUGUUCAUGUAAGCGA [KL-XArg-A11 #analogue]” is 2.3-fold lower in “apparent KD of K4 kissing-loop reporter” value: 368 nM for the first, 159 nM for the second.

“UUAGUCUAGAGAAGGAGCGAGUGAUGUUUGCUAAGAUCUAUGAUAUCAUAGAUCAAAUUUACUCAGGUAGGUCGCUCUAGACAUU [AK4 Exc Arginine B]” and “UUGAGCCUGACGUAAGUCAGGCUCUGCGAGCGAGGACCGGUACGGCCGCCACUCGGUGCAGUGAUGUUGCAUGGCCGCAAGGCCG [#2 Exclusion - Tryptophan A Attempt #15 (HarryS)]” are within 1.5-fold of each other in “apparent KD of K4 kissing-loop reporter” value: 294 nM for the first, 278 nM for the second.

“AGGCACGAGCAAGGAUAUCGAGUAGAGUGAUGUUCUGCCUGGGUUGGCUCGAAAGAGCCUUCUCAGCGAGAAGGUGCUCGUGCCU [#2 Same State - FMN A Attempt #21 (HarryS)]” and “GCUAUGGUAGGAAGGAGCGCUUACUCGGUAAUAAGAGUGAUGUUCGAUACCGAGUAUUUAUAGCAGGUAGGUCGCCUACUAUAGC [Arginine B K4 5]” are within 1.5-fold of each other in “apparent KD of K4 kissing-loop reporter” value: 248 nM for the first, 238 nM for the second.

First: AUUAUAUAGGCGGCCGCCACUAGUGAUGUUAGUGACUAUAUGAAAACAUAUAGAAUAAAAUAAUAUAGGACCGGGCCAUAAUAUU [AstrosExTryB#4]
Second: AAGGGCUAGGCGGCCGCCACUGGUCGUGUACACAUACAAACCAGUGAUGUUGGUAUUGUAUGCGACAGGACCGGGCCUAGCCGAA [Exclusion - Tryptophan B (Freestyle 28)]
The “apparent KD of K4 kissing-loop reporter” value of the first is 1.8-fold higher: 498 nM for the first, 280 nM for the second.

First: CACUUACGUAGUGAUGUUACGAUCUCUGAUACCAGACAACUCUAAGUCCCUUGGCAGCAGUCAUUUUGCUUUUAAUUUACUCAAA [JR_ExcTheophyA_Sub014]
Second: UAGUUGCCGGUUUGUAGGCUUCGGCAGUGGGAGGAUAUGUUGACCGACAGAAGGCCCAGUGAUGUUGGGCGAUUGGCGGUGAGAU [Antebear]
The “apparent KD of K4 kissing-loop reporter” value of the first is 11-fold higher: 552 nM for the first, 50 nM for the second.

“UAGUCCUAGUGAUCCUUAUCAAGUGGUGGGCGAGGACCGGUACGGCCGCCACUCGACUAUGCAGUGAUGUUGCAAUCCGGACAAU [Exclusion - Tryptophan A (Freestyle 13)]” and “AGAGUUAUGCGAGGAUAUGCAGUUAGUACUCAAAGAGUACUAACGCAGAGUGAUGUUCUGUGAAAAGCAGAAGGUGCAUAACUCA [Omei KL FMN B SS B v6]” are within 1.5-fold of each other in “apparent KD of K4 kissing-loop reporter” value: 191 nM for the first, 155 nM for the second.

Going from “GCGCGUCAUGUCAGCGGUGACUUUGUCGAUACCAGCGCCGCAAGGCGCCCUUGGCAGCGACGCGCUGGAGUGAUGUUCCAGCGUG [#2 Exclusion - Theophylline A Attempt #12 (HarryS)]” to “CGCAGUGAUGUUGCUAUUAUUCUUGGUUAACGAGGACCGGUACGGCCGCCACUCGAUUUCUAUCUAAUCCAGUGUUUUUUUGAGU [JR_ExcTryptoA_Sub003]”, the “apparent KD of K4 kissing-loop reporter” value rises from 135 nM to 301 nM (2.2-fold).

Going from “CACAAUUAAUUACAGUGAUGUUGUAAUCUGCGAGGACCGGUACGGCCGCCACUCGGGCUUGUAGGGCGCCCACAUUCUUAUACUA [theeternabot_sameState_KL_Trp_A_29]” to “AGGGUUAAUUAGUCUUUUUUCACAUUAAGUCAGGAUAUCGUAUUUUCGAGAAGGGACACAUGCUAGUGAUGUUAGCUAUUUCCCA [#02 K4 FMN A Exclusion]”, the “apparent KD of K4 kissing-loop reporter” value falls from 447 nM to 77.3 nM (5.8-fold).

“GCCGUACGCAUGGAUACCAGACUACCAUUGGAAACAAUGUGUCCGGUAGUGAUGUUACCUGUCCCUUGGCAGCCAUGCGUACGGC” and “CACUUACGUAGUGAUGUUACGAUCUCUGAUACCAGACAACUCUAAGUCCCUUGGCAGCAGUCAUUUUGCUUCAAAUUUACUCAAA [JR_ExcTheophyA_Sub013]” are within 1.5-fold of each other in “apparent KD of K4 kissing-loop reporter” value: 649 nM for the first, 691 nM for the second.

First: AAUACUAUCAGAAGGAGCGUGGAAUAUUCAUCUGUAUCUAAUACGAGUGAUGUUCGUAAUUCACAGGUAGGUCGCUGAUCAAUAA [whbob_Ex_Arginine_B_2th156]
Second: CGCAGUGAUGUUGCGAAUAUAAUUACGGAAGGAGCGCGUGAAAACGCAGGUAGGUCGCCGUUUGGUAUGAUGGAAACAUCGUACC [Arginine A K4 10]
The “apparent KD of K4 kissing-loop reporter” value of the first is 1.8-fold higher: 246 nM for the first, 140 nM for the second.

First: UCCAAGGACGAACCGGUAUGAUCACCGGAUACCAGAGGCGAAAGCCUCCCUUGGCAGCCGAGUGUAGUGAUGUUACACUGGUUCU
Second: GGAUCCACCAGUGAUGUUGGAGAAAACUCCAAGGAUAUGACGAAAGUCAGAAGGUGGUAGACUGGGCAAAGUCCGGUCGGAUCCA [FmnA10 G66]
The “apparent KD of K4 kissing-loop reporter” value of the first is 35-fold lower: 89.8 nM for the first, 3150 nM for the second.

“AAGCGUAAAAUGGCGGACAUACUGCUCCCACGAGGACCGGUACGGCCGCCACUCGAAUGCGGCAGUGAUGUUGCCGCCUUCGCGU [Zauslereed]” and “AGUGUUGUAUGACGGUUUGUCACUUAGGAUCAGGAUAUAUAAACAAAUAGAAGGGAUGGCGGAGUGAUGUUCCGCCGGCCGCCAU [FMN A Exl V9]” are within 1.5-fold of each other in “apparent KD of K4 kissing-loop reporter” value: 74 nM for the first, 110 nM for the second.

“GCCGUAGAUCGAAGGAGCGUGUCCAAACCUCAUUCAUGUACACACGAGUGAUGUUCGUGUACACAGGUAGGUCGCGAUCUACGGC [#04 K4 Arginine B Exclusion]” was tested, and the “apparent KD of K4 kissing-loop reporter” value was 344 nM.

Same assay, conditions: Eterna round: R107; input ligand: arginine 13.2 mM

First: ACCAUCAAAGAUGGCCAGGACUCAACUGAUACCAGAGUGGAAACACUCCCUUGGCAGCAGGUGAGUGAUGUUCACGAGUCCUGGA [Omel KL Theo A SS B v8]
Second: AAGUGAUGUUGUAGUGAUGUUGUGAUGUUGCAGGAUAUAUAGUGAUGUAGAAGGGUAUGUGCAGUUUUCUUAUUUGAGUGUUGAU [zwzamullin]
The “apparent KD of K4 kissing-loop reporter” value of the first is 24-fold higher: 786 nM for the first, 33.2 nM for the second.

“GUGCGGUGGAGGUUACCGCUAUUCUGAGAAGGAGCGCAGAUGACUGCAGGUAGGUCGCUUAGAGCUUGCAGUGAUGUUGCAAGUU [Berienza]” and “AAGCAGUCACUCGACGCCAUCGAAGAUGGGCGAGGACCGGUACGGCCGCCACUCGGAGUGAUGUUCUGAAGACUGCAAAAUAAAA [MatMod 7 - Jieux - Exclusion - Tryptophan A]” are within 1.5-fold of each other in “apparent KD of K4 kissing-loop reporter” value: 174 nM for the first, 166 nM for the second.

Going from “CGCGCGGGUUUGAGAGGGUUUGCGCGAAGUGAGGAUAUUUAGGGAGAAAGAAGGCACUAUAAAAUAUAGUGAUGUUAUAUAAGGG [SSFMNA.I]” to “AAAAUAGAUCAGUGAUGUUGGUGUCUGGAUACCAGCGAUAAUAGUCGCCCUUGGCAGCCAUGGACGUACAAAAUAAGUACGUCCU [MatMod 20 - Jieux - Same State - Theophylline A]”, the “apparent KD of K4 kissing-loop reporter” value rises from 117 nM to 239 nM (2-fold).

Compared with “CGAGUGAUGUUCGUUCGUUUAUUUCGGUGACAGGAUAUGCGGAAACGCAGAAGGGUCACCUUUGGGUUACCGGAAUUAACGUUAU [Ex FMN A 30]”, “UGACUGGACUGAAGGAGCGCUUAACUCCUAGUGAUGUUAGGAUAACGAGACAAAGUCUCGAAGCAGGUAGGUCGCAGUCUAGUCU” is 4.4-fold lower in “apparent KD of K4 kissing-loop reporter” value: 455 nM for the first, 104 nM for the second.

“AAUAAUAGUUGAGCAGGCGUGGUCUGAGAUACCAGUGAUUUCGAUCACCCUUGGCAGCUCAGCAUGAGUGAUGUUCAUGCUAUUC [Theo A Ex t10]” and “AAUAAAAUCACGGCCGCCACUGAUUUCCAUAUUAGGAGUGAUGUUCCUAUGACUAUAUAAUUUAACAGGACCGGGUGAAUAUUUA [JR_ExcTryptoB_Sub012]” are within 1.5-fold of each other in “apparent KD of K4 kissing-loop reporter” value: 114 nM for the first, 112 nM for the second.
